# How the values were obtained:
# IFN-γ (human) [1] = molecular target: T1, IFN-γ (human) (UniProt P01579); assay: SPR; conditions: biotinylated DNA on SA chip, 1x PBS + 50 mM NaCl, 0.05% NP-40, 25 C
# T1 sequence: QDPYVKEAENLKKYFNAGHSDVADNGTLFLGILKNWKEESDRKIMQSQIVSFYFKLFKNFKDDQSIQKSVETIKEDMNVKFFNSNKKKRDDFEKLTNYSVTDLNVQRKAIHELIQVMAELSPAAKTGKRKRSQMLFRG
# IFN-γ (human) [2] = molecular target: T1, IFN-γ (human); assay: competition; conditions: PBS, 0.005% NP-40, 37 C
# [3] = tested on: T2, VEGF165 (human), P15692-4; assay: competition; conditions: n = Ds unnatural base in DNA, phosphate buffer pH 7.4, 0.005% NP-40, 37 C
# T2 sequence: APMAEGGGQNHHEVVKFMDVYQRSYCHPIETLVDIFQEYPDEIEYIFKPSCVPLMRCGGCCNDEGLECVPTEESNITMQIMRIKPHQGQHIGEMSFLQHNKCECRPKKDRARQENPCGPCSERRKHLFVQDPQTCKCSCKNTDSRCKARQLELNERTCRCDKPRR
# [4] = n = Ds unnatural base in DNA, EMSA competition vs 32P-Aptamer 49 (=1.00)
# [5] = EMSA competition vs 32P-Aptamer 47 (=1.00)
sequence,measurement,setting,value
CCCGCCCGGGTCCGCGAAGCGGTAGGTNTGGGCTAGGCNGCTGGCGGGCGCGAAGCG [Aptamer 57GCmh (IFN-γ)],Kd,IFN-γ (human) [1]; n = Ds unnatural base in DNA,0.033 nM
same,binding signal,IFN-γ (human) [2]; [4],1.53
CCCGCCCGGGTCGCCTANTGGCGTAGGTNTGGGCTAGGCNGCTGGCGGGCGCGAAGCG [Aptamer 58GC (IFN-γ)],binding signal,IFN-γ (human) [2]; [4],0.24
CGGTAAACTGCGTCCGAAGGGGCNTGCAGTGANCCCGAATGGGTCCG [Aptamer 47 (VEGF)],binding signal,[3]; reference,1
GCGGTAAACTGCGTCCGAAGGGGCNTGCAGTGANCCCGAATGGGTCCGC [Aptamer 49 (VEGF)],binding signal,[3]; [5],1.53
GCGGTAAACTGCGTCCGAAGGGGCNTGCAGTGANCCCGAATGGGTCCGCCGCGAAGCG [Aptamer 58mh (VEGF)],binding signal,[3]; [5],1.58
GCGGTAAGCCGCGTCCGAAGGGGCNTGCGGCGANCCCGAATGGGTCCGC [Aptamer 49GC (VEGF)],binding signal,[3]; [5],1.5
GCGGTAAGCCGCGTCCGAAGGGGCNTGCGGCGANCCCGAATGGGTCCGCCGCGAAGCG [Aptamer 58GCmh (VEGF)],binding signal,[3]; [5],1.59
TCCACTCGGGTCATTTANTAATGTAGGTNTGGGCTAGGCNGCTAGTGGA [Aptamer 49 (IFN-γ)],Kd,"IFN-γ (human) [1]; n = Ds, 7-(2-thienyl)-3H-imidazo[4,5-b]pyridin-3-yl unnatural base in DNA",0.046 nM
same,binding signal,"IFN-γ (human) [2]; n = Ds, 7-(2-thienyl)-3H-imidazo[4,5-b]pyridin-3-yl unnatural base in DNA, reference, EMSA competition",1
TCCACTCGGGTCATTTANTAATGTAGGTNTGGGCTAGGCNGCTAGTGGACGCGAAGCG [Aptamer 58 (IFN-γ)],Kd,IFN-γ (human) [1]; n = Ds unnatural base in DNA,0.038 nM
same,binding signal,IFN-γ (human) [2]; [4],1.29
TCCACTCGGGTCCGCGAAGCGGTAGGTNTGGGCTAGGCNGCTAGTGGACGCGAAGCG [Aptamer 57mh (IFN-γ)],binding signal,IFN-γ (human) [2]; [4],1.4

# — patent US20180346912
